Substitutions are numbered along the chain they refer to.

B1: anti-ED-A antibody B7 (scFv)
scFv: EVQLVESGGGLVQPGGSLRLSCAASGFTFSHFDMSWVRQAPGKGLEWVSAISGSGGSTYYADSVKGRFTISRDNSKNTLYLQMNSLRAEDTAVYYCAKSTHLYLFDYWGQGTLVTVSSGGGGSGGGGSGGGGSGGGGSEIVLTQSPGTLSLSPGEKATLSCRASQSVSLAFLAWYQQKPGQAPRLLIYGASSRATGIPDRFSGSGSGTDFTLTISRLEPEDFAVYYCQQMRGRPPTFGQGTKVEIKAAAEQKLISEEDLNGAA
notes: scFv; Supernatant in BIAcore analysis 1, purified monomeric fraction in BIAcore analysis 2
B2: anti-ED-A antibody G9 (scFv)
scFv: B1 scFv with F32M, D33Q, L169T
notes: as for B1
B3: anti-ED-A antibody F8 (scFv)
scFv: B1 scFv with H31L, D33T, L169M, A170P
notes: scFv format, not the F8 diabody; Supernatant in BIAcore analysis 1, purified monomeric fraction in BIAcore analysis 2; also called anti-ED-A scFv F8
B4: anti-ED-A antibody C5 (scFv)
scFv: B1 scFv with H31P, F32I, D33T, A170H
notes: as for B1
B5: anti-ED-A antibody D5 (scFv)
scFv: B1 scFv with H31V, F32M, D33K, L169N
notes: as for B1
B6: anti-ED-A antibody B2 (scFv)
scFv: B1 scFv with H31A, F32A, D33K, L169V
notes: as for B1
B7: anti-ED-A antibody C8 (scFv)
scFv: B1 scFv with H31L, F32Q, D33T, A170P
notes: as for B1
B8: anti-ED-A antibody E5 (scFv)
scFv: B1 scFv with H31T, F32G, D33S, F171H
notes: scFv, tested as bacterial supernatant in BIAcore analysis 1
B9: anti-ED-A antibody H1 (scFv)
scFv: B1 scFv with H31P, F32R, D33R, L169S, F171W
notes: scFv, tested as bacterial supernatant in BIAcore analysis 1; Tags from the pHEN1 vector are not described
B10: anti-ED-A antibody E8 (scFv)
scFv: B1 scFv with H31D, F32M, D33H, L169S, A170S
notes: as for B8
B11: anti-ED-A antibody F1 (scFv)
scFv: B1 scFv with H31Q, F32A, D33R, L169A, A170P
notes: scFv, tested as bacterial supernatant (E. coli TG-1) in BIAcore analysis 1

T1 sequence (P02751 other isoform, or with tags, fused parts or gaps limits assumed): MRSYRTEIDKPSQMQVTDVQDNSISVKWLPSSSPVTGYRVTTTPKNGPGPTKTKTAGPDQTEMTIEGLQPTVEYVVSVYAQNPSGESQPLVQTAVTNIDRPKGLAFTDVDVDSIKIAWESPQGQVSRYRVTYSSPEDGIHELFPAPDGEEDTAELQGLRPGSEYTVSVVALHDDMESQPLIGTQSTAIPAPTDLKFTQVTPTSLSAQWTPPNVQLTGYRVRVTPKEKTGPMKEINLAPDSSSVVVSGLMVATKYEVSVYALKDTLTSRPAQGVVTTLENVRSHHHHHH

The first assay addresses T1, antigen (11A12) containing the ED-A domain of human fibronectin (human, UniProt P02751 1629-1905).
T1 construct: Immobilised on a CM5 chip by amine coupling
Put plainly: SPR (BIAcore), monomeric scFv over 11A12 immobilised on CM5 chip. As to the method: The kₒₙ, koff and KD of the parent anti-ED-A antibody and anti-ED-A antibodies B2, C5, D5, C8, F8, B7 and G9 were evaluated using Surface Plasmon Resonance. The chip was equilibrated over night with the same buffer used during the assay at a buffer flow rate of 5 μl/min. The whole coating procedure was performed at this flow rate. The antigen 11A12 was diluted 1:25 with acetate buffer pH 4.00 (provided by BIACORE) to a final concentration of 20 μg/ml. The NHS and EDC were then mixed and 50 μl injected to activate the COOH groups on the CM5 chip. This was followed by injection of 40 μl of the antigen (this lasts about 40″). Then 30 μl of Ethanolammine were injected in order to block the reactivity of eventual free COOH.
Each sample was assayed at a flow rate 20 μl/min. 20 μl of undiluted monomeric protein (as it comes out from the gel filtration) was injected. The dissociation time was left to run for about 200″. Then 10 μl of HCl 10 mM was injected to regenerate the chip. The injection of monomeric protein was repeated at different dilutions, i.e. 1:2 dilution (in PBS) followed by regeneration with HCl. This was followed by a third injection of the protein, at a dilution of 1:4 followed again by regeneration with HCl. The kₒₙ, koff and KD values for each anti-ED-A antibody were evaluated using the BIAevaluation software.
Consider B1, for which the Kd was roughly 16.8 nM, the off-rate (koff) is 0.0045 s⁻¹ and the kon amounted to 267000 M⁻¹ s⁻¹.
On to B2, for which the dissociation constant Kd is roughly 20.9 nM, the koff amounted to 0.00754 s⁻¹ and the kon was 360000 M⁻¹ s⁻¹.
The molecule B3 gave a Kd of roughly 3.1 nM, a koff of 0.0014 s⁻¹ and a kon of 465000 M⁻¹ s⁻¹.
Take B4: the Kd was roughly 30 nM, the off-rate constant (koff) worked out at 0.00923 s⁻¹ and the on-rate (kon) amounted to 304000 M⁻¹ s⁻¹.
The molecule B5 came in with a Kd of roughly 17 nM, a koff of 0.0076 s⁻¹ and an association rate constant (kon) of 453000 M⁻¹ s⁻¹.
The like results for B6 were, in that order, roughly 20 nM, 0.00754 s⁻¹ and 380000 M⁻¹ s⁻¹.
Consider B7, for which the Kd was roughly 14 nM, the koff turned out to be 0.0053 s⁻¹ and the kon worked out at 380000 M⁻¹ s⁻¹.

For another assay, the target named is T1, antigen (11A12) containing the ED-A …. The assay is described as follows: SPR (BIAcore analysis 1), bacterial supernatant of scFv over immobilised 11A12; flatter dissociation curve than the parent. The procedure:
The BIAcore Chip was flushed overnight at a flow rate of 5 μl/min with HBS-EP buffer BIACORE, 0.01 M Hepes pH 7.4, 0.15 M NaCl, 3 mM EDTA, 0.005% surfactant P20 (same buffer used for the assay). The antigen (11A12) was diluted to a concentration of 50 μg/ml in acetate buffer (pH 4.0) and the COOH groups on the chip were activated by injection of 50 μl of a mix of N-Hydroxy Succinimmide (NHS) and ethyl-N-(dimethylaminopropyl)-carbodiimide (EDC). 40 μl of the 11A12 antigen were injected onto the chip and the residual free COOH groups were blocked with 30 μl of ethanolamine. After a 0.22 μm filtration, 20 μl of each individual bacterial supernatant were injected onto the chip and interaction with the antigen was monitored in real time.
The association curves of antibodies H1, C5, D5, E5, C8, F8 and F1 were flatter than that observed for the parent anti-ED-A antibody while the association curve observed for antibodies B2, B7, E8 and G9 was as steep as the association curve observed for the parent anti-ED-A antibody. However, as bacterial supernatants of IFTG-induced E. coli TG-1 cells were used for the BIAcore analysis of antibodies H1, B2, C5, D5, E5, C8, F8, F1, B7, E8 and G9, the concentration of the tested antibody samples was unknown but most probably lower than the concentration of the parent anti-ED-A antibody sample used for comparison. Consequently, the association curve of antibodies H1, B2, C5, D5, E5, C8, F8, F1, B7, E8 and G9 may be artificially low due to the low concentration of antibody in the samples used for the BIAcore analysis.
In the case of B8, the binding result is on record as “binds”.
Still for that read-out and setting: to B9 belongs “binds”; to B10, “binds”.
On the same count and under the same terms, then B11, with “binds”.
